The supplement of paper PMC9732359
± gives the uncertainty stated by the source.

Test: protein stability index of a GFP-peptide fusion (yeast GPS) (PSI 1-4); higher = more stable; sorted into four equal gates, so the index is relative within each strain
In short: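 Mid-log yeast cultures in leucine-free medium, carrying a pooled plasmid library, were sorted into four equal gates by their GFP/Cherry fluorescence ratio. Each plasmid expressed Cherry along with GFP fused upstream of a tiled 17-residue yeast protein peptide. Plasmids recovered from each gate were PCR-amplified and Illumina-sequenced, with reads assigned to strains by barcodes. The protein stability index was obtained by summing each gate's read frequency weighted by its gate number.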

| Sequence | protein stability index (doa10∆) | protein stability index (pdr5∆) | protein stability index (san1∆) | protein stability index (ubr1∆) |
| --- | --- | --- | --- | --- |
| LTSNISSLVRSCGEEEF [REC8] | 3.33 ± 0.17 | 2.78 ± 0.13 | 2.21 ± 0.13 | 3.25 ± 0.13 |
| FTFGLTVVQVYDNGQVF [RPP0] | 1.26 ± 0.09 | 1.3 ± 0.1 | 1.36 ± 0.28 | 1.39 ± 0.16 |
| MHKQLAYILAAQKTSFE [RPN1] | 2.37 ± 0.056 | 2.46 ± 0.064 | 2.29 ± 0.067 | 2.43 ± 0.063 |
| NFNPDNGFAPISEVMED [FAS1] | 3.3 ± 0.085 | 3.06 ± 0.042 | 3.2 ± 0.044 | 3.17 ± 0.033 |
| LIKERQEMERKLEKKRN [ESC2] | – | – | 3.1 ± 0.15 | – |
| DVYNRELDEHTTQIDLF [BRR2] | 3.07 ± 0.07 | 2.73 ± 0.056 | 2.9 ± 0.046 | 2.41 ± 0.04 |
| KDTTGPKAISNFLIKLS [YCS4] | 2.09 ± 0.11 | 2.08 ± 0.1 | 1.34 ± 0.14 | 1.52 ± 0.065 |
| KKNNLEFGTYGKYVIAG [RPN14] | 2.51 ± 0.088 | 2.09 ± 0.069 | 1.79 ± 0.14 | 2.1 ± 0.065 |
| VLAGDTRNITDYSINSR [PRE7] | 2.93 ± 0.09 | 3.29 ± 0.075 | 3.22 ± 0.061 | 3.24 ± 0.058 |
| KFPPPTPLLENISISTS [BRR2] | 1.83 ± 0.054 | 1.84 ± 0.056 | 1.63 ± 0.094 | 1.68 ± 0.045 |
| KPLKKGSADIGASVISL [SIR4] | 3.09 ± 0.068 | 3.14 ± 0.055 | 3.05 ± 0.038 | 3.06 ± 0.04 |
| KKLLEVHDIFSKIFNES [CDC53] | 2.84 ± 0.072 | 2.71 ± 0.059 | 2.77 ± 0.057 | 2.66 ± 0.05 |
| PSVKRQKMAELEAARSE [PRP8] | 3.31 ± 0.1 | 3.26 ± 0.075 | 3.31 ± 0.074 | 3.28 ± 0.077 |
| MPYTINELLEMVGLASG [BRR2] | 2.56 ± 0.049 | 2.31 ± 0.057 | 2.58 ± 0.052 | 2.52 ± 0.031 |
| KTFSRLDALTRHIKSKH [RPN4] | 1.11 ± 0.12 | 1.25 ± 0.087 | 1.06 ± 0.12 | 1.5 ± 0.1 |
| DLISEILKWVQWSRIVL [MED1] | 3.48 ± 0.12 | 3.33 ± 0.11 | 3.08 ± 0.064 | 3.54 ± 0.061 |
| GPANNPNEFMQFKSKEV [PRP8] | 3.1 ± 0.11 | 3.31 ± 0.083 | 3.19 ± 0.044 | 3.43 ± 0.11 |
| PTLPTNHNKTKLLKSLK [PRP8] | 2.33 ± 0.07 | 1.6 ± 0.056 | 1.82 ± 0.076 | 2.41 ± 0.057 |
| DLKKFTSTITKYKQLLL [RPN3] | 2.92 ± 0.089 | 3 ± 0.055 | 2.91 ± 0.066 | 3.07 ± 0.045 |
| TPRDRRKSVFAPLNFNP [SSN2] | 2.68 ± 0.066 | 2.57 ± 0.063 | 2.95 ± 0.081 | 2.86 ± 0.045 |
| AFITQLESSITDAGVLA [YJL039C/NUP192] | 1.54 ± 0.06 | 1.6 ± 0.057 | 1.16 ± 0.14 | 1.08 ± 0.096 |
| PKFGVEGLIRLDNLTED [DIS3] | 2.97 ± 0.074 | 2.86 ± 0.068 | 3.08 ± 0.043 | 3.07 ± 0.038 |
| LSEPLIKIGIRVMKSLS [YCG1] | 1.59 ± 0.066 | 1.98 ± 0.052 | 1.74 ± 0.066 | 1.73 ± 0.06 |
| RMSSEEVNSLLLQVNKT [GRR1] | 3.03 ± 0.16 | 3.13 ± 0.2 | 2.96 ± 0.19 | 2.78 ± 0.16 |
| NEHSTSYTFRSEKGLLS [FAS1] | 2.6 ± 0.047 | 2.36 ± 0.054 | 2.7 ± 0.042 | 2.46 ± 0.033 |
| PFGAKSTKSNKAKNPLT [RPL8B] | 3.38 ± 0.094 | 3.1 ± 0.067 | 2.98 ± 0.061 | 2.93 ± 0.091 |

| Sequence | protein stability index (doa10∆) | protein stability index (pdr5∆) | protein stability index (san1∆) | protein stability index (ubr1∆) |
| --- | --- | --- | --- | --- |
| AHLYMLEPSGSYWGYKG [PRE10] | 1.66 ± 0.069 | 1.7 ± 0.13 | 2.06 ± 0.21 | 1.84 ± 0.082 |
| LTYDKDLTNNPQDDDSQ [MTR3] | 2.8 ± 0.073 | 3.21 ± 0.099 | 3 ± 0.081 | 3.1 ± 0.075 |
| SAGNDKMVKAWNLNQFQ [ASC1] | 2.46 ± 0.044 | 2.38 ± 0.054 | 2.15 ± 0.065 | 2.36 ± 0.041 |
| CRQEFLERVKANAAKRA [RPL21A] | – | 1.33 ± 0.23 | – | – |
| LPRELPKLLDALNKISK [SNU114] | 2.65 ± 0.072 | 2.74 ± 0.083 | 2.84 ± 0.077 | 2.88 ± 0.062 |
| LTHSTPKNFGIGQAVQP [RPL8A] | 3.06 ± 0.06 | 3.01 ± 0.045 | 3.02 ± 0.033 | 3.18 ± 0.036 |
| GYTQHGGLRPFGVSFIY [PRE9] | 2.67 ± 0.22 | 2.03 ± 0.098 | 1.84 ± 0.1 | 1.65 ± 0.064 |
| TQSGGVRPFGVSTLIAG [PRE6] | 1.5 ± 0.14 | 1.72 ± 0.12 | 1.75 ± 0.17 | 1.43 ± 0.081 |
| DEGKEIPATIFDKVIYH [TAF14] | 3.13 ± 0.077 | 3.14 ± 0.059 | 3.15 ± 0.041 | 3.02 ± 0.056 |
| VRNKSYPVYTRLRTLCR [DIS3] | 2.65 ± 0.08 | 2.83 ± 0.072 | 3.06 ± 0.11 | 2.46 ± 0.051 |
| RAQVLSLGDGTNYYLTT [CSL4] | 2.6 ± 0.061 | 2.66 ± 0.05 | 2.79 ± 0.048 | 3.08 ± 0.072 |
| NNLEPRQTTSNTGLLNK [RPN11] | 3.2 ± 0.062 | 3.24 ± 0.061 | 3.14 ± 0.044 | 3.32 ± 0.046 |
| QHEQGTFEKHDRVEDIC [RRI2] | 2.89 ± 0.091 | – | – | 2.97 ± 0.13 |
| SMSEEFKYVSVRYEEKR [BRR2] | 3.41 ± 0.2 | 3.38 ± 0.14 | 3.12 ± 0.22 | – |
| CLNCEKSKLFEWKSEFV [SNM1] | 2.61 ± 0.14 | 2.68 ± 0.13 | 2.97 ± 0.067 | 2.7 ± 0.12 |
| AFGGSATTGGGLFGNKP [YGL172W/NUP49] | 3.26 ± 0.091 | 2.7 ± 0.26 | – | 3.16 ± 0.12 |
| DRRAQRVAEKRDALLKE [RPL19A] | 3.19 ± 0.12 | 3.25 ± 0.097 | 3.07 ± 0.15 | 3.44 ± 0.067 |
| DLLVIDSHKRIPDMSKN [SNU114] | 2.99 ± 0.073 | 3.09 ± 0.073 | 2.93 ± 0.053 | 3.24 ± 0.056 |
| LGNTSSVANTPSEIPDA [SWI3] | 2.95 ± 0.059 | 3.06 ± 0.062 | 3.03 ± 0.091 | 2.98 ± 0.047 |
| MLRRHAAPPSTNFEILN [DIS3] | 1.87 ± 0.11 | 1.8 ± 0.1 | 1.71 ± 0.18 | 2.93 ± 0.074 |
| LITPAVRNTAPNIRELG [YCG1] | 2.57 ± 0.18 | 2.76 ± 0.15 | 2.68 ± 0.28 | 3.09 ± 0.093 |
| SKQDASPKPYAVKYGLN [RPL8A] | 3.3 ± 0.12 | 3.2 ± 0.096 | 3.23 ± 0.095 | 3.14 ± 0.095 |
| TTKLAFLVEYEGQENNY [SIR4] | 2.87 ± 0.085 | 2.85 ± 0.068 | 2.4 ± 0.1 | 3.19 ± 0.052 |
| GGNSTQNTSNMNAGGLF [YGR119C/NUP57] | 3.26 ± 0.093 | 3.15 ± 0.06 | 3.04 ± 0.055 | 3.19 ± 0.081 |
| RTQAGDIVSIDIEEPQL [MTW1] | 2.99 ± 0.12 | 3.26 ± 0.1 | 3.36 ± 0.061 | 3.24 ± 0.081 |
| LGVKSRLLEKSELPDIY [SNF2] | 3.12 ± 0.13 | 3.42 ± 0.15 | 3.05 ± 0.082 | 3.11 ± 0.19 |
